Key:
[1] = target: the molecule itself; assay: SDS-resistant band on the immunoblot of the pull-down eluate; The Strep-tagII-S100A13 pull-down eluate from the C6 glioma cytosolic fraction was run on SDS-PAGE and blotted with anti-ANXA2. The 63 kDa band is read as the ANXA2 dimer.
[2] = target: T1, recombinant Strep-tagII-S100A13 protein; assay: ELISA; 100 uM amlexanox
T1 chain: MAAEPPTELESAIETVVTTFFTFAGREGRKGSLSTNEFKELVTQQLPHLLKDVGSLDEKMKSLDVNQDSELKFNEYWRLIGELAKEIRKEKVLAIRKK

[3] = target: T1, recombinant Strep-tagII-S100A13 protein; assay: ELISA; vehicle 0.05% DMSO

Kd [2]: 418 nM
Kd [3]: 416 nM
B1: annexin A2 (ANXA2), endogenous in C6 glioma cells (natural protein, rat (endogenous in C6 glioma cells), UniProt Q07936 1-339, looked up)
chain: MSTVHEILCKLSLEGDHSTPPSAYGSVKPYTNFDAERDALNIETAIKTKGVDEVTIVNILTNRSNAQRQDIAFAYQRRTKKELPSAMKSALSGHLETVMLGLLKTPAQYDASELKASMKGLGTDEDSLIEIICSRTNQELQEINRVYKEMYKTDLEKDIISDTSGEFRKLLVALAKGKRAEDGSVIDYELIDQDARELYDAGVKRKGTDVPKWISIMTERSVCHLQKVFERYKSYSPYDMLESIRKEVKGDLENAFLNLVQCIQNKPLYFADRLYDSMKGKGTRDKVLIRIMVSRSEVDMLKIRSEFKRKYGKSLYYFIQQDTKGDYQKALLYLCGGDD
notes: annexin A2, rat, endogenous in C6 glioma cells; In whole cell extracts it ran as a single band; also called dimeric ANXA2 of 63 kDa; ANXA2 dimer; source: endogenous, rat C6 glioma cells (cytosolic fraction; fixed cells for in situ PLA)
stoichiometry N [1]: 2
